From US20040208867A1, “Protein having active sulfate transporter activity and method for detecting canceration of tissue” (NATIONAL INSTITUTE OF ADVANCED INDUSTRIAL SCIENCE AND …, priority 2002, published 2004) come the findings set out here.

A short description of series [1]: transport activity of the P100 fraction for labeled nucleotide sugars instead of PAPS. Format: biochemical, yeast strain W303a. Conditions: labeled nucleotide sugars instead of 35S-labeled PAPS (FIG. 2).
Substrate in series [2]: Nc1ncnc2c1ncn2[C@@H]1O[C@H](COP(=O)(O)OS(=O)(=O)O)[C@@H](OP(=O)(O)O)[C@H]1O
The series is described as follows: cells, lysate or membranes. The conditions noted are these: other: transport of PAPS (35S-labeled), P100 fraction, pH 7.5, PAPS concentration varied, FIG. 3, FIG. 4, 37.0 °C.

B1: human STP3 (GenBank accession No. XM_059770), protein having active sulfate (PAPS) transport activity, SEQ ID NO:2 (Homo sapiens) (protein)
chain: MDARWWAVVVLAAFPSLGAGGETPEAPPESWTQLWFFRFVVNAAGYASFMVPGYLLVQYFRRKNYLETGRGLCFPLVKACVFGNEPKASDEVPLAPRTEAAETTPMWQALKLLFCATGLQVSYLTWGVLQERVMTRSYGATATSPGERFTDSQFLVLMNRVLALIVAGLSCVLCKQPRHGAPMYRYSFASLSNVLSSWCQYEALKFVSFPTQVLAKASKVIPVMLMGKLVSRRSYEHWEYLTATLISIGVSMFLLSSGPEPRSSPATTLSGLILLAGYIAFDSFTSNWQDALFAYKMSSVQMMFGVNFFSCLFTVGSLLEQGALLEGTRFMGRHSEFAAHALLLSICSACGQLFIFYTIGQFGAAVFTIIMTLRQAFAILLSCLLYGHTVTVVGGLGVAVVFAALLLRVYARGRLKQRGKKAVPVESPVQKV
Broadly, the Km is the concentration of substrate that gives half-maximal velocity. B1: in series [1], the “activity to specifically transport substances other than PAPS” value is “substantially has no activity”. Moreover, the Km in series [2] was 0.7 µM.
